Measurements published in publication PMC3480970 (Molecular microbiology, 2012).
Each block holds one molecule with its values, some of them ahead of it.

Key:
[1] = target: GST-CheD (B. subtilis) (UniProt P40404); test: pull-down
[2] = target: CheC (Thermotoga maritima) (UniProt Q9X006); test: ITC; settings: cited from earlier work
[3] = target: T1, 6xHis-McpC cytoplasmic fragment (wild type, unmodified) (B. subtilis, UniProt P54576 298-655); test: pull-down
T1 sequence (looked up): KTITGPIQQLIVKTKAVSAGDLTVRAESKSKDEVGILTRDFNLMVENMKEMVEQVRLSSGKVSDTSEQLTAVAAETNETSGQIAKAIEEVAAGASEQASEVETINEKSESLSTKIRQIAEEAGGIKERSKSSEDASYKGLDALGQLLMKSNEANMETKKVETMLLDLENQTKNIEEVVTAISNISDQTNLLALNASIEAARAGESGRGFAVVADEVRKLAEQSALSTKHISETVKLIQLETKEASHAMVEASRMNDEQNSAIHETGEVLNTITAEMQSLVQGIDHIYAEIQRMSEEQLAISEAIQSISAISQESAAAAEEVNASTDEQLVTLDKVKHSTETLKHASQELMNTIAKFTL

CheC (Thermotoga maritima), sequence (Q9X006 whole entry, the tested form may be a part): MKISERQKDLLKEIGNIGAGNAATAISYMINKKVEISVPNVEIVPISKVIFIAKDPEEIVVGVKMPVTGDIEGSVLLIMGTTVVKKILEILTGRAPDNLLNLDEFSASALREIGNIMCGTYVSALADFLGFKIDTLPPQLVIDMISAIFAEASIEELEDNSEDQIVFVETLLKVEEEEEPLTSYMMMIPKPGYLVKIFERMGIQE

Kd [1]: 117 µM
percent of chemoreceptor bound [1]: 13.2%
Molecule: Deamidated (Q609E) McpC cytoplasmic chemoreceptor fragment (from UniProt P54576 1-655) (domain or fragment)

Molecule: CheD (from UniProt Q9X005)
Kd [2]: 1 µM

Kd [3]: 202 µM
B1: GST-CheD (enzyme, B. subtilis, UniProt P40404 1-166, looked up)
chain: MSTTEAVVIKVGIADVKIARFPDTIRTSGLGSCVGLVLYDKEKQTAGLVHVMLPDSTLSKTAELNRAKYADTAVQTTIDMLIEAGCRKFALKAKLAGGSEMFKFKSTNDLMKIGPRNVLAIKEQLSLFNIPIISEDTGGSSGRTIEFEPKSCMLHIRTVKQGEKTI
